Experimental findings from paper doi:10.1101/2020.05.13.093591 are described below.

This assay has as its target PfPDI8 (PF3D7_0827900), 3xV5-tagged at the endogenous locus (P. falciparum (3D7)). The experiment in a line: cross-linking + co-IP.

For the substance “PfBiP, the Hsp70 Binding immunoglobulin Protein (natural protein)”, the fold increase of co-immunoprecipitated PfBiP with DVSF against without DVSF turned out to be 2 fold.
